Experimental data reported in patent US20120052007A1, “PERIPHERAL BLOOD SPARC BINDING ANTIBODIES AND USES THEREOF” (ABRAXIS BIOSCIENCE, LLC, priority 2010, published 2012).

What was measured:
MDA-MB-231 (breast) = assay: MDA-MB-231 breast cancer xenograft; type: in vivo, mice; conditions: MDA-MB-231 xenograft, nab-paclitaxel 10 mg/kg, P<0.001 (FIG. 24C)
Description: (§1) Control animals for each xenograft were administered PBS. […] Animal weights were measured twice weekly.
(§2) These findings were further confirmed in the MDA-MB-231 breast cancer xenografts (FIG. 24C) and PC3 prostate cancer xenografts (FIG. 24D). […] In these experiments, nab-paclitaxel was dosed sub-optimally at 10 mg/kg, daily for five cycles.

MDA-MB-435-Luc+ = MDA-MB-435-Luc+ orthotopic metastatic model; type: in vivo, mice
Description: MDA-MB-435-Luc+ were implanted orthotopic in mammary fat pad (MFP) at 4×10^6 cells in 50% Matrigel and allowed to reach average tumor volume of 180 mm^3 before treatment. Treatments were: 2 cycles of 10 mg/kg nab-paclitaxel, 4 mg/kg SPARC, and bevacizumab biweekly. At appropriate time interval, the following organs were harvested for quantitation of metastasis: Proximal lymph nodes, contralateral lymph nodes, lungs, liver and brain. Statistical tests used included t-test and Mann Whitney-U.
Mice were monitored 2-3 times a week and tumor growth was recorded. Mice were sorted when tumor volumes reached 180 mm^3, and the first cycle of treatment was administered. Seven rest days were given between the first and second cycle. Bevacizumab and SPARC were continually administered during the rest period. Weight was measured periodically throughout the study to assess toxic effects from the therapy.
The following dosing schedules were followed: Control (Group 1); 10 mg/kg nab-paclitaxel daily for 3 to 5 cycles (Group 2); 4 mg/kg soluble SPARC (Bio 1) injected i.v. biweekly (Group 3); and 10 mg/kg nab-paclitaxel daily for two to five cycles and 4 mg/kg SPARC-biweekly (Group 4).
Total metastatic burden was also calculated. It is presented as measured luciferase activity in tissue extracts expressed in RLU normalized per mg protein. All contralateral lymph nodes were negative for all groups. There were a few incidences of metastasis occurred in the proximal lymph node, liver and brain. […] Liver metastasis occurred somewhat frequently in the both control and SPARC groups (present in 3 mice in each group). There was also one control mouse that had brain metastasis.

PC3 (prostate) = assay: PC3 prostate cancer xenograft; type: in vivo, mice; conditions: nab-paclitaxel 10 mg/kg, P<0.001 (FIG. 24D)
Description: as §1, §2

[1] = test system: human umbilical cord vein endothelial cells (HUVEC); assay: HUVEC bead sprouting angiogenesis assay; type: cell-based; conditions: 5 days
Description: First, the effect of SPARC on sprouting was studied in an in vitro angiogenesis model system that was prepared using human umbilical cord vein endothelial cells (HUVEC) as described by Nakatsu et al (Methods Enzymol. 443:65-82 (2008)). Low passage HUVEC grown in M199 media supplemented with 10% FBS (Gibco, Carlsbad, Calif.) were switched to EGM-2 media (Clonetics, Walkersville, Md.) 2 days before beading. Cytodex 3 microcarrier beads (Amersham Pharmacia Biotech, Piscataway, N.J.) were hydrated and washed with PBS (pH 7.4). 1×10^6 HUVEC cells were incubated with 2500 hydrated and sterilized beads in EGM-2 medium for 4 hours at 37° C. for coating. The coated beads were next embedded in 2 mg/mL fibrinogen in PBS with 0.15 units/mL aprotinin at a concentration of 500 beads/mL. Next, 0.625 units/mL thrombin was added and 0.5 mL of the mixture was added to each well of a 24 well plate. The solution was allowed to clot at RT for 5 minutes and 37° C. for another 15 min. After clotting 20,000 lung fibroblast cells in EGM-2 media were seeded in each well. Either 1, 10 or 100 μg/mL BioI SPARC protein in PBS, or PBS without protein was added to the growth medium and cultures were maintained for 5 days until sprouting was evaluated by light microscopy. The number of tubes formed/bead and the morphology of sprouting HUVEC cells in the cultures were determined using image pro software (Media Cybernetics, Bethesda, Md.).

[2] = test system: endothelial cell tubule formation; assay: TCS Cellworks AngioKit tubule formation assay; type: cell-based, human; conditions: 11 days
Source text: Next, the effect of SPARC on tubule formation was examined using the TCS cellworks human Angiokit model kit (TCS-ZHA-1000, TCS Cell Works Buckingham, UK). In this assay, the endothelial cells initially form small islands within the culture matrix. They subsequently begin to proliferate and then enter a migratory phase during which they move through the matrix to form threadlike tubule structures. These gradually join up (by 9-11 days) to form a network of anastomosing tubules which closely resembles a capillary bed.
24-well pre-seeded endothelial cell tissue culture plates containing early stage co-cultures (day 2-3) were used according to manufacturer's recommendations (TCS Cell Works, Buckingham, UK). The cultures were incubated at 37° C./5% CO2 for 11 days. Media on the cultures was changed with added test and control compounds on days 4, 7 and 9 after initial treatment, followed by fixation with 70% ethanol on day 11. Fixed cultures were subsequently stained as follows: Primary rabbit anti-CD31 antibody (Thermo Scientific) was diluted to a final concentration of 2 μg/mL in PBS/1% BSA blocking buffer. Then, 0.5 mL of diluted anti-CD31 antibody was added to each well and incubated for 1 h at 37° C. […]
The number and lengths of tubules formed were then evaluated by light microscopy. […] Total vessel number, total tubule area and the number of branch points can be similarly determined.

HT29 (colon) = test system: HT29 (colon)
Source text: Female and male athymic NCr-nu mice between 5 and 6 weeks of age weighing approximately 20 g were purchased from Harlan, Inc. (Madison, Wis., USA). Human cancer cells HT29 (colon), PC3 (prostate), and MDA-MB-231 (breast) were propagated in cell culture and implanted subcutaneously at one million cells per flank of female (for MDA-MB-231 and HT29) or male (for PC3 prostate tumor) nude mice and allowed to grow to approximately 60-100 mm^3 before treatment was initiated. Treatments included 5-fluorouracil (5FU), docetaxel (Taxotere®), albumin-bound paclitaxel (nab-paclitaxel), nab-paclitaxel plus suntinib malate (Sutent®), or nab-paclitaxel plus bevacizumab (Avastin®) with or without exogenously administered SPARC). Control animals for each xenograft were administered PBS. The longest (length) and shortest (width) tumor diameters (millimeter) and tumor depth were measured twice weekly. The tumor volume was calculated with the formula: tumor volume (mm3)=width×length×depth. Tumor growth inhibition (TGI) was defined as the percentage of tumor volume reduction compared with the control group at the time of euthanasia for the control animals. Tumor doubling time was defined as the time required for the tumor volume to double […]. Animal weights were measured twice weekly. Statistical analysis was performed using the Prism program (GraphPad, San Diego, Calif., USA). Analysis of variance (ANOVA) statistic was used to compare tumor growth curves.

[3] = test system: recombinant human SPARC protein; assay: Tube Formation Assay (AngioKit) with SPARC and SPARC binding antibodies; type: cell-based; conditions: 10 μg/mL recombinant human SPARC in the culture media
Description: This assay was performed using the TCS Cellworks human AngioKit model kit (TCS-ZHA-1000, TCS Cell Works, Buckingham, UK) as described in Example 10 above. The media contained 10 μg/mL recombinant human SPARC protein. The media also contained 300 μg/mL of one of the above prepared mouse SPARC binding monoclonal antibodies (Imm12, Imm14, mHTI), or a control (mouse IgG).
To examine the effect of SPARC on tubule formation, and interference with that function by SPARC binding monoclonal antibodies, the number of tubules formed and their length was evaluated by light microscopy.

B1: SPARC: recombinant wild-type human SPARC (BIO1), exogenously administered (protein)
chain: APQQEALPDETEVVEETVAEVTEVSVGANPVQVEVGEFDDGAEETEEEVVAENPCQNHHCKHGKVCELDENNTPMCVCQDPTSCPAPIGEFEKVCSNDNKTFDSSCHFFATKCTLEGTKKGHKLHLDYIGPCKYIPPCLDSELTEFPLRMRDWLKNVLVTLYERDEDNNLLTEKQKLRVKKIHENEKRLEAGDHPVELLARDFEKNYNMYIFPVHWQFGQLDQHPIDGYLSHTELAPLRAPLIPMEHCTTRFFETCDLDNDKYIALDEWAGCFGIKQKDIDKDLVI
MDA-MB-231 (breast)
  effect of SPARC administration on antitumor effects of nab-paclitaxel and suntinib: significantly inhibited
MDA-MB-435-Luc+; MDA-MB-435-Luc+ mammary fat pad tumors
  tumor growth rate: 23.16±4.38 mm3/day
MDA-MB-435-Luc+; in 63 days
  average tumor volume: 1765 mm3
MDA-MB-435-Luc+; luciferase activity in lung tissue extracts
  lung metastatic burden, average RLU/mg total protein: 31630±10820 RLU/mg total protein
MDA-MB-435-Luc+; mouse, in vivo
  mice positive for lung metastasis: 9 of 9
  mice with liver metastasis: 3 mice
MDA-MB-435-Luc+; mouse, in vivo, in mm³ (unit assumed)
  Tumor Volume on day 56: 1524
MDA-MB-435-Luc+; tumor volume on day 56
  % Inhibition: 35%
PC3 (prostate)
  effect of SPARC administration on antitumor effects of nab-paclitaxel and bevacizumab: significantly inhibited
[1]; 1 μg/mL SPARC
  seeded HUVEC/beads that had developed sprouts: less than 50%
[1]; 10 μg/mL SPARC
  average sprouts/bead: 0.9 sprouts/bead
[1]; 100 μg/mL SPARC
  average sprouts/bead: 1.9 sprouts/bead
[2]; high concentration of SPARC (100 μg/mL)
  angiogenic activity (tubule formation): significantly inhibited angiogenesis
[2]; low concentrations of SPARC (1 and 10 μg/mL)
  angiogenic activity (tubule formation): stimulate angiogenesis
HT29 (colon); HT29 xenograft (FIG. 24B)
  impact of SPARC treatment on the nab-paclitaxel/bevacizumab combination: minimal negative impact
HT29 (colon); HT29 xenograft, versus control group at euthanasia of control animals
  Tumor growth inhibition (TGI): 35.4%
[3]
  tubule formation: formation of numerous long tubules
